According to patent US20250333515A1:

How the values were obtained:
[1] = biological target: biotinylated recombinant human CLL-1 extracellular domain protein, isoform with glutamine at amino acid position 244 (human) (UniProt Q5QGZ9); assay: BLItz, 1:1 model (Q244 per FIG. 12B)
[2] = biological target: biotinylated recombinant human CLL-1 extracellular domain protein, isoform with glutamine at amino acid position 244 (human) (UniProt Q5QGZ9); assay: Exp 2 (= Blitz, CLL-1-Q244 of FIG. 12B)
[3] = biological target: biotinylated recombinant human CLL-1 extracellular domain protein, isoform with glutamine at amino acid position 244 (human) (UniProt Q5QGZ9); assay: Blitz (CLL-1-Q244)
[4] = biological target: biotinylated recombinant human CLL-1 extracellular domain protein, isoform with lysine at amino acid position 244 (human) (UniProt Q5QGZ9); assay: Octet (CLL-1-K244); variant: Both
[5] = biological target: biotinylated recombinant human CLL-1 extracellular domain protein, isoform with lysine at amino acid position 244 (human) (UniProt Q5QGZ9); assay: Exp 1 (= Octet, CLL-1-K244 of FIG. 12B)
[6] = biological target: biotinylated recombinant human CLL-1 extracellular domain protein, isoform with glutamine at amino acid position 244 (human) (UniProt Q5QGZ9); assay: EC50 table, CLL-1 Q244; reciprocals of the ELISA bars of FIG. 8B
[7] = biological target: biotinylated recombinant human CLL-1 extracellular domain protein, isoform with lysine at amino acid position 244 (human) (UniProt Q5QGZ9); assay: EC50 table, CLL-1 K244; reciprocals of the ELISA bars of FIG. 8B
[8] = biological target: biotinylated recombinant human CLL-1 extracellular domain protein, isoform with lysine at amino acid position 244 (human) (UniProt Q5QGZ9); assay: Octet (CLL-1-K244); variant column says Only Q
[9] = biological target: biotinylated recombinant human CLL-1 extracellular domain protein, isoform with lysine at amino acid position 244 (human) (UniProt Q5QGZ9); assay: Octet (CLL-1-K244); variant column: Q>K

Chain of biotinylated recombinant human CLL-1 extracellular domain protein, isoform with glutamine at amino acid position 244 (human) (Q5QGZ9 65-265): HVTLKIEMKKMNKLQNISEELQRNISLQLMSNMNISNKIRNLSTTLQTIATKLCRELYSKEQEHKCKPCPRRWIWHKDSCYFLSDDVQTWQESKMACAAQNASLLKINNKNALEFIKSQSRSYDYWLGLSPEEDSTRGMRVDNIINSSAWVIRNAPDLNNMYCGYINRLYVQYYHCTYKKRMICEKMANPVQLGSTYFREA
Chain of biotinylated recombinant human CLL-1 extracellular domain protein, isoform with lysine at amino acid position 244 (human) (Q5QGZ9 65-265): as above

| Binder | Kd [1] [nM] | koff [1] [s⁻¹] | kon [1] [M⁻¹ s⁻¹] | Kd [2] [nM] | Kd [3] [nM] | Kd [4] [nM] | Kd [5] [nM] | EC50 [6] [nM] | EC50 [7] [nM] | Kd [8] [nM] | Kd [9] [nM] |
| --- | --- | --- | --- | --- | --- | --- | --- | --- | --- | --- | --- |
| Anti-CLL-1 Binder Clone 41 (scFv, not shown: small tags and cut ends) scFv: QSVLTQPASVSGSLGQSITISCTGTSRDVGGYNFVSWYQQHPGKAPKLIIFDVTTRPSGLSDRFSASKSGNTASLTISGLQAEDEADYFCGSYTASDTMLFGGGTKLTVLGGGGSGGGGSGGGGSQVQLLESGGGVVQPGRSLRLSCAASGFTFDDYAMHWVRQAPGKGLEWVSGISWNSGSIGYADSVKGRFTVSRDNSKNTLYQQMNGLRAEDTAVYYCAREGRPTAFDYWGQGTTVTVSS | 306 | 0.032 | 100000 | 306 | 306 |  |  |  |  |  |  |
| Anti-CLL-1 Binder Clone 6 (scFv, not shown: small tags and cut ends) scFv: QSVLTQPPSVSAAPGQKVSIFCSGGSSNIGKNYVSWYQQLPGTAPKLLIYENQHRPSGIPDRFSGSKSGTSATLGITGLQTGDEADYYCATWDDSLSAGVFGGGTELTVLGGGGSGGGGSGGGGSQLVQSGAEVRKPGESLKISCKGSGYSFTSYWIGWVRQMPGKGLEWMGFIYPGDSDTRYSPSFQGQVTISADKSISTAYLQRSSLKASDTAMYYCARLGGYSGYDSEVFYLDYWGQGTTVTVSS | 11 | 0.00029 | 27000 | 11 | 11 | 5.08 | 5.08 |  |  |  |  |
| Anti-CLL-1 Binder Clone 20 (VHH, not shown: small tags and cut ends) VHH: QVQLVQSGGGLVQPGGSLRLSCAASDFSFSYYEMSWVRQAPGKGLEWVSTISGSGDSTYYADSVKGRFTISRDNTKNTLYLQMNTLRAEDTATYYCMTDGETWGTHRYTVYWGQGALVTVSS | 33 | 0.0035 | 110000 | 33 | 33 | 5.68 | 5.68 |  |  |  |  |
| Anti-CLL-1 Binder Clone 38 (scFv, not shown: small tags and cut ends) scFv: DIQMTQSPSTLSASVGDRVTITCRASQSISSWLAWYQQKPGKAPKLLIYTASSLQSGVPSRFSGSESGTDFTLTISSLQPEDFATYYCQQSYSTPLTFGGGTKVDIKGGGGSGGGGSGGGGSQVQLVQSGAEVKKPGASVKVSCKASGYTFTGYYMHWVRQAPGQGLEWMGWINPNSGGTNYAQKFQGRVTLTRDTSITTAYLELTSLTSDDTAVYYCARGDTGDFFDHWGQGTLVTVSS | 14 | 0.00097 | 69000 | 14 | 14 | 1.74 | 1.74 |  |  |  |  |
| Anti-CLL-1 Binder Clone 96 (VHH) VHH: QVQLVQSGGGLVQPGGSLRLSCAASYFDFSYYEMSWVRQAPGKGLEWVSLMSGNGGSTYYADSVKGRFTISRDNSKNTLYLQMNTLRAEDTATYYCVAHSSTWFSWGQGTLVTVSS |  |  |  |  |  |  |  | 6.4 | 6.4 |  |  |
| Anti-CLL-1 Binder Clone 94 (VHH) VHH: QVQLVQSGGGLVQPGGSLRLSCAASYFDFAAYDMDWVRQAPGQRLEWVAKISHDGSYSWYADSVKGRFTISRDNSKNTLYLQMNTLRAEDTAVYYCVRGEGGSERADYWGRGTLVTVSS |  |  |  |  |  |  |  | 90 |  |  |  |
| Anti-CLL-1 Binder Clone 99 (VHH) VHH: QVQLVQSGGGLVQPGGSLRLSCAASAFDFYSYEMSWVRQAPGKGLEWVSYIGPIGTDIGYADSVKGRFTISRDNSKNTLYLQMNTLRAEDTAMYYCAKDPYYDSTGLTSYWGQGTLVTVSS |  |  |  |  |  |  |  | 88 | 93 |  |  |
| Anti-CLL-1 Binder Clone 102 (VHH) VHH: QVQLVQSGGGLVQPGGSLRLSCAASYFSFADYEMSWVRQAPGQRLEWVAVVSKDGNELYYADSVKGRFTISRDNSKNTLYLQMNTLRAEDTAVYYCVKDPYDFWSGYYSNWGQGTLVTVSS |  |  |  |  |  |  |  | 2.5 | 2.6 |  |  |
| Anti-CLL-1 Binder Clone 2 (scFv, not shown: small tags and cut ends) scFv: QSVLTQPLSVSVALGQTARITCGGNNIGSKNVHWYQQKAGQAPVLVIQRDSNRPSGIPERFSGSNSGNTATLTISRAQAGDEADYFCQVWDSNTYVFGTGTKLTVLGGGGSGGGGSGGGGSEVQLVESGGGLVKPGGSLRLSCAASGFTFSDYYMSWIRQAPGKGLEWVSYISSSGSTIYYADSVKGRFTISRDNAKNSLYLQMNSLRDEDTAVYYCARQSAEIVGAFDHWGQGTMVTVSS | 70 | 0.0033 | 47000 | 70 | 70 |  |  |  |  |  |  |
| Anti-CLL-1 Binder Clone 95 (VHH) VHH: QVQLVQSGGGLVQPGGSLRLSCAASAFDFDDSSMDWVRQAPGKALEWIGSISYFGSTYYNPSLKSRVTISRDNSKNTLYLQMNTLRAEDTATYYCTRSALYGDAAFDVWAQGTTVTVS |  |  |  |  |  |  |  | 5.3 | 5.1 |  |  |
| Anti-CLL-1 Binder Clone 40 (scFv, not shown: small tags and cut ends) scFv: QSVLTQPPSVSAAPGQKVTISCSGSSSNIGNNYVSWYQQLPGTAPKLLIYDNNKRPSGIPDRFSGSESGTSATLGITGLQTGDEADYYCGTWDSSLSAWVFGGGTQLIILGGGGSGGGGSGGGGSQVQLQQSGPGLVKPSQTLSLTCAISGDSVSSNSAAWNWIRQSPSRGLEWLGRTHYRSKWYNDYAVSVKSRITISADTSKNQFSLQLNSVTPEDTAVYYCARDRYTVRPDAFDIWGQGTTVTVSS | 14 | 0.00081 | 58000 | 14 | 14 |  | 8.35 |  |  | 8.35 |  |
| Anti-CLL-1 Binder Clone 11 (scFv, not shown: small tags and cut ends) scFv: QSVLTQPASVSGSPGQSITISCTGTSSDVGASNSVSWYQRHPGKPPKLMIYDVSNRPSGISNRFSGSKSGNTASLTISGLQSEDEADYYCSSYTGSSTFVVFGGGTQLIILGGGGSGGGGSGGGGSEVQLVESGGGVVQPGGSLRLSCAASGFTFSSYWMSWVRQAPGKGLEWVANIRQDGSEKYYVDSVKGRFTISRDNAKNSLYLQMNSLRAEDAAVYYCAREQDTAMVAFDYWGQGTLVTVSS | 41 | 0.0023 | 59000 | 41 | 41 |  | 16.6 |  |  |  | 16.6 |
| Anti-CLL-1 Binder Clone 12 (scFv, not shown: small tags and cut ends) scFv: DIQMTQSPSSLSASVGDRVTITCQASQDISNYLNWYQQKPGKAPKLLIYDASNLETGVPSRFSGSGSGTDFTLTISSPQPEDLATYYCQQANSFPFTFGQGTKVEIKGGGGSGGGGSGGGGSQVQLVQSGAEVKKPGSSVKVSCKASGYSFTRNDITWVRQANGRGLEWLGRLNPNNGDTVYAEVFQGRVAMTRDTSTDTAYMELASLKSDDTAVYFCARGFWSFDVWGQGTMVTVSS | 45 | 0.0034 | 76000 | 45 | 45 |  |  |  |  |  |  |
| Anti-CLL-1 Binder Clone 4 (scFv, not shown: small tags and cut ends) scFv: QSVVTQPPSVSAAPGQKVTISCSGSSPNIGKNYVSWYQQLPGTAPKLLIYDNNKRPSGIPDRFSGSKSGTSATLGITGLQTGDEADYYCGTWDSSLSGYVFGTGTKVTVLGGGGSGGGGSGGGGSQVQLVESGGGVVQPGRSLRLSCAASGFTFSSYGMHWVRQAPGKGLEWVAFISHDGSNKYYADSVKGRSTISRDNSKSTLFLQMNSLRDEDTAVYFCAREGQLTTSWDFFDYWGHGTLVTVSS | 13 | 0.00057 | 43000 | 13 | 13 |  |  |  |  |  |  |
| Anti-CLL-1 Binder Clone 98 (VHH) VHH: QVQLVQSGGGLVQPGGSLRLSCAASDFYFDDYEMSWVRQAPGQRLEWVSLISSDGTTYYADSVKGRFTISRDNSKNTLYLQMNTLRAEDTALYYCVRTTDSWELDLWGRGTLVTVSS |  |  |  |  |  |  |  | 11 | 12 |  |  |
| Anti-CLL-1 Binder Clone 10 (scFv, not shown: small tags and cut ends) scFv: DIQMTQSPSFLSASVGDRVTITCRASQGISSYLAWYQQKPGKAPKLLIYSASSLQSGVPSRFSGSGSGTDFTLTISSLQPEDFATYYCQQSYNSPTFGQGTRLEIKGGGGSGGGGSGGGGSQVQLVQSGAEVKKPGASVKVSCKASGYTFTGYYMHWVRQAPGQGLEWMGWMNPNSGNTGYAQKFQGRVTMTRNTSISTAYLELTSLTSDDTAVYYCARGDTGDFFDHWGQGTLVTVSS | 21 | 0.0013 | 62000 | 21 | 21 | 2.61 | 2.61 |  |  |  |  |
| Anti-CLL-1 Binder Clone 97 (VHH) VHH: QVQLVQSGGGLVQPGGSLRLSCAASDFDFDDDSMDWVRQAPGKGLEWIGSVLHDGATYYNPSLKSRVTISRDNSKNTLYLQMNTLRAEDTATYYCTRSALYGDAAFDVWAQGTMVTVSS |  |  |  |  |  |  |  | 1.3 | 1.3 |  |  |
| Anti-CLL-1 Binder Clone 101 (VHH) VHH: QVQLVQSGGGLVQPGGSLRLSCAASDFDFADDSMDWVRQAPGKALEWIGSIFYSGTTYYNPSLKSRVTISRDNSKNTLYLQMNTLRAEDTAVYYCTRSALYGDAAFDVWAQGTMVTVSS |  |  |  |  |  |  |  | 4.8 | 4.8 |  |  |
| Anti-CLL-1 Binder Clone 100 (VHH) VHH: QVQLVQSGGGLVQPGGSLRLSCAASDFDFDDDSMDWVRQAPGKALEWIGSVSYSGQTFYNPSLKSRVTISRDNSKNTLYLQMNTLRAEDTAMYYCTRSALYGDAAFDVWAQGTMVTVSS |  |  |  |  |  |  |  | 0.59 | 0.6 |  |  |
